Data as given in publication PMC2805019 (ACS chemical biology, 2008).

Tests used:
[1] = biological target: apoptosis inducing factor (AIF) (Homo sapiens, UniProt O95831); assay: ITC; type: binding
[2] = biological target: T1, MazEF toxin-antitoxin complex (UniProt P0AE72;P0AE70 1-82;1-111); assay: photonic crystal biosensor
[3] = biological target: T1, MazEF toxin-antitoxin complex; assay: photonic crystal biosensor; remark: listed apart in the source
[4] = biological target: T1, MazEF toxin-antitoxin complex; assay: competition
[5] = biological target: T2, AIF (57 kDa form, AIFΔ1-121) (human, UniProt O95831 122-613); assay: competition
T2 sequence (O95831 122-613, stated change not applied): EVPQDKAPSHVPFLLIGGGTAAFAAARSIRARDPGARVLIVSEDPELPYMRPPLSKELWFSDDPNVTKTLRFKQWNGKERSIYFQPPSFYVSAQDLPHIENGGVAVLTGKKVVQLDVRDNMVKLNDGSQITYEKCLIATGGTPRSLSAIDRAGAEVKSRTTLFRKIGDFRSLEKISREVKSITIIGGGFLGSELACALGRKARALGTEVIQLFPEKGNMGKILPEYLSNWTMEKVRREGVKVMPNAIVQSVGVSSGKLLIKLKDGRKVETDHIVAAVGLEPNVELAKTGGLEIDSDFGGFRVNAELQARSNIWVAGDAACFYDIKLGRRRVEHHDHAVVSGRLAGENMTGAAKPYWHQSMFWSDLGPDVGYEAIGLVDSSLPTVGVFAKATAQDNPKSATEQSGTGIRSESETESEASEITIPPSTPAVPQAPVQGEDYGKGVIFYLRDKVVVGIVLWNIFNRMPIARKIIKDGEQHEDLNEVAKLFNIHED

[6] = biological target: T2, AIF (57 kDa form, AIFΔ1-121); assay: photonic crystal biosensor

T1 sequence (P0AE72 whole entry, chain 1 of 2): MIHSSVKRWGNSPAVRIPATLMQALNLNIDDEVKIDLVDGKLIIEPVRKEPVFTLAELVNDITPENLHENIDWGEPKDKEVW
T1 sequence (P0AE70 whole entry, chain 2 of 2): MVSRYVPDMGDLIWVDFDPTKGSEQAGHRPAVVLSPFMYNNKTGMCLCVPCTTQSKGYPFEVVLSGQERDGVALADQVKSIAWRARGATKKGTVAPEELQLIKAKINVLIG
apoptosis inducing factor (AIF), sequence (O95831 122-613): as the sequence (O95831 122-613, stated change not applied) above

`O=C(O)C1=CC(=C(c2ccc(O)c(C(=O)O)c2)c2ccc(O)c(C(=O)O)c2)C=CC1=O` [ATA, aurin tricarboxylic acid] showed a Kd [1] of 19 ± 5 µM.

B1: alternating GC control DNA, biotinylated (dsDNA)
DNA 1: GCGCGCGCGCGCGCGCGCGCGCGCGCGCGCGCGCGCGCGCGCGCGCGCGC
DNA 2: CGCGCGCGCGCGCGCGCGCGCGCGCGCGCGCGCGCGCGCGCGCGCGCGCG
B1: no binding [2].

B2: MazEF promoter DNA, biotinylated (dsDNA)
DNA 1: GCTCGTATCTACAATGTAGATTGATATATACTGTATCTACATATGATAGC
DNA 2: GCTATCATATGTAGATACAGTATATATCAATCTACATTGTAGATACGAGC
B2: binds [3].

B3: MazEF promoter DNA, nonbiotinylated (dsDNA)
DNA 1: GCTCGTATCTACAATGTAGATTGATATATACTGTATCTACATATGATAGC
DNA 2: GCTATCATATGTAGATACAGTATATATCAATCTACATTGTAGATACGAGC
B3: binds [4].

B4: randomized 30 bp dsDNA, nonbiotinylated (dsDNA)
DNA 1: CCGGTACGATACGACGATCGATAGTAGGCC
DNA 2: GGCCTACTATCGATCGTCGTATCGTACCGG
B4: binds [5].

B5: randomized 30 bp dsDNA, biotinylated (dsDNA)
DNA 1: CCGGTACGATACGACGATCGATAGTAGGCC
DNA 2: GGCCTACTATCGATCGTCGTATCGTACCGG
B5: binds [6].
